Results on 57 substances are retold here after patent publication US10597433B2, “Peptides and combination of peptides for use in immunotherapy against small cell lung cancer and other cancers” (Immatics Biotechnologies GmbH, priority 2015, dated 2020).

In the test the target is HLA-A*02:01 (Homo sapiens, UniProt P04439, D140Y/D185E/D98H/E176V/E277Q/G131W/G231S/I119V/I121R/I166T/I218V/L300P/L318F/N151K/N90K/P208A/P217A/Q86G/Q94H/R138H/R169H/T345S). As to the kind of experiment: MHC binding assay: UV-ligand exchange with ELISA detection of β2m of stabilized MHC complexes. Conditions: binding to HLA-A*02:01. The text has this:
Candidate peptides for T cell based therapies according to the present invention were further tested for their MHC binding capacity (affinity). The individual peptide-MHC complexes were produced by UV-ligand exchange, where a UV-sensitive peptide is cleaved upon UV-irradiation, and exchanged with the peptide of interest as analyzed. Only peptide candidates that can effectively bind and stabilize the peptide-receptive MHC molecules prevent dissociation of the MHC complexes. To determine the yield of the exchange reaction, an ELISA was performed based on the detection of the light chain (β2m) of stabilized MHC complexes. The assay was performed as generally described in Rodenko et al. (Rodenko et al., 2006).
96 well MAXISorp plates (NUNC) were coated over night with 2 μg/ml streptavidin in PBS at room temperature, washed 4× and blocked for 1 h at 37° C. in 2% BSA containing blocking buffer. Refolded HLA-A*02:01/MLA-001 monomers served as standards, covering the range of 15-500 ng/ml. Peptide-MHC monomers of the UV-exchange reaction were diluted 100 fold in blocking buffer. Samples were incubated for 1 h at 37° C., washed four times, incubated with 2 μg/ml HRP conjugated anti-β2m for 1 h at 37° C., washed again and detected with TMB solution that is stopped with […]. Absorption was measured at 450 nm. Candidate peptides that show a high exchange yield (preferably higher than 50%, most preferred higher than 75%) are generally preferred for a generation and production of antibodies or fragments thereof, and/or T cell receptors or fragments thereof, as they show sufficient avidity to the MHC molecules and prevent dissociation of the MHC complexes.
In the case of “57 (VLIGDVLVAV; listed as Homo sapiens) [compound 57]”, the “Peptide exchange (MHC class I binding score, peptide exchange yield)” value (“Peptide exchange” below) was “++++ (≥75% = ++++)”.

As for “58 (VLLNINGIDL; listed as Homo sapiens) [compound 58]”, the “Peptide exchange” value was “++++ (≥75% = ++++)”.

On to “59 (VLLSGLTEV; listed as Homo sapiens) [compound 59]”, for which the “Peptide exchange” value is “++++ (≥75% = ++++)”.

For “60 (VVSGATETL; listed as Homo sapiens) [compound 60]”, the “Peptide exchange” value is given as “++++ (≥75% = ++++)”.

For “61 (YQAPYFLTV; listed as Homo sapiens) [compound 61]”, the “Peptide exchange” value is “+++ (≥50 = +++)”.

For the substance “62 (VMLPIGAVVMV; listed as Homo sapiens) [compound 62]”, the “Peptide exchange” value is “+++ (≥50 = +++)”.

For “63 (LLMSTENEL; listed as Homo sapiens) [compound 63]”, the “Peptide exchange” value is recorded as “+++ (≥50 = +++)”.

Regarding “64 (VLFHQLQEI; listed as Homo sapiens) [compound 64]”, the “Peptide exchange” value was “+++ (≥50 = +++)”.

“65 (VMYDLITEL; listed as Homo sapiens) [compound 65]”: the “Peptide exchange” value is recorded as “+++ (≥50 = +++)”.

Regarding “66 (YLNLISTSV; listed as Homo sapiens) [compound 66]”, the “Peptide exchange” value is “+++ (≥50 = +++)”.

“67 (MLYDIVPVV; listed as Homo sapiens) [compound 67]”: the “Peptide exchange” value was “+++ (≥50 = +++)”.

As for “68 (FLFPVYPLI; listed as Homo sapiens) [compound 68]”, the “Peptide exchange” value was “+++ (≥50 = +++)”.

Consider “69 (KLFDRSVDL; listed as Homo sapiens) [compound 69]”, for which the “Peptide exchange” value was “++ (≥20% = ++)”.

In the case of “70 (TLLWKLVEV; listed as Homo sapiens) [compound 70]”, the “Peptide exchange” value is given as “++ (≥20% = ++)”.

Take “71 (FIFEQVQNV; listed as Homo sapiens) [compound 71]”: the “Peptide exchange” value was “+++ (≥50 = +++)”.

For “72 (KAIGSLKEV; listed as Homo sapiens) [compound 72]”, the “Peptide exchange” value is listed as “+++ (≥50 = +++)”.

For the substance “73 (SLSSYTPDV; listed as Homo sapiens) [compound 73]”, the “Peptide exchange” value is on record as “+++ (≥50 = +++)”.

For “74 (FLDSLSPSV; listed as Homo sapiens) [compound 74]”, the “Peptide exchange” value is reported as “+++ (≥50 = +++)”.

In the case of “75 (SLDLHVPSL; listed as Homo sapiens) [compound 75]”, the “Peptide exchange” value was “+++ (≥50 = +++)”.

With “77 (AIIDGKIFCV; listed as Homo sapiens) [compound 77]”, the “Peptide exchange” value is reported as “+++ (≥50 = +++)”.

Take “78 (RIIDPEDLKALL; listed as Homo sapiens) [compound 78]”: the “Peptide exchange” value was “++++ (≥75% = ++++)”.

On to “79 (RLLEPAQVQQL; listed as Homo sapiens) [compound 79]”, for which the “Peptide exchange” value is given as “+++ (≥50 = +++)”.

As for “81 (LLAEIGAVTLV; listed as Homo sapiens) [compound 81]”, the “Peptide exchange” value is “+++ (≥50 = +++)”.

“83 (KLLEIDIDGV; listed as Homo sapiens) [compound 83]”: the “Peptide exchange” value is “+++ (≥50 = +++)”.

As to “84 (KMFENEFLL; listed as Homo sapiens) [compound 84]”, the “Peptide exchange” value is listed as “+++ (≥50 = +++)”.

With “85 (FAYDGKDYLTL; listed as Homo sapiens) [compound 85]”, the “Peptide exchange” value is reported as “+++ (≥50 = +++)”.

“86 (KVIDYVPGI; listed as Homo sapiens) [compound 86]”: the “Peptide exchange” value was “+++ (≥50 = +++)”.

For the substance “87 (LLQNNLPAV; listed as Homo sapiens) [compound 87]”, the “Peptide exchange” value is on record as “++++ (≥75% = ++++)”.

For “88 (TLHRETFYL; listed as Homo sapiens) [compound 88]”, the “Peptide exchange” value is recorded as “++++ (≥75% = ++++)”.

As to “89 (IQHDLIFSL; listed as Homo sapiens) [compound 89]”, the “Peptide exchange” value is reported as “+++ (≥50 = +++)”.

For “90 (TLVDNISTMAL; listed as Homo sapiens) [compound 90]”, the “Peptide exchange” value is on record as “+++ (≥50 = +++)”.

Regarding “91 (KLQDGVHII; listed as Homo sapiens) [compound 91]”, the “Peptide exchange” value is “+++ (≥50 = +++)”.

With “92 (YLQDYTDRV; listed as Homo sapiens) [compound 92]”, the “Peptide exchange” value was “+++ (≥50 = +++)”.

As for “93 (ALRETVVEV; listed as Homo sapiens) [compound 93]”, the “Peptide exchange” value is on record as “+++ (≥50 = +++)”.

Turning to “94 (ALFPVAEDISL; listed as Homo sapiens) [compound 94]”, the “Peptide exchange” value is recorded as “+++ (≥50 = +++)”.

For “95 (ALYSKGILL; listed as Homo sapiens) [compound 95]”, the “Peptide exchange” value is on record as “++++ (≥75% = ++++)”.

On to “96 (NLLKLIAEV; listed as Homo sapiens) [compound 96]”, for which the “Peptide exchange” value is reported as “++++ (≥75% = ++++)”.

Turning to “97 (ALLDGTVFEI; listed as Homo sapiens) [compound 97]”, the “Peptide exchange” value is “+++ (≥50 = +++)”.

On to “98 (ALVDHLNVGV; listed as Homo sapiens) [compound 98]”, for which the “Peptide exchange” value is “+++ (≥50 = +++)”.

On to “99 (QMLEAIKALEV; listed as Homo sapiens) [compound 99]”, for which the “Peptide exchange” value is “++++ (≥75% = ++++)”.

Take “100 (VADPETRTV; listed as Homo sapiens) [compound 100]”: the “Peptide exchange” value was “+ (≥10% = +)”.

With “101 (AMNSQILEV; listed as Homo sapiens) [compound 101]”, the “Peptide exchange” value is given as “+++ (≥50 = +++)”.

For “102 (ALFARPDLLLL; listed as Homo sapiens) [compound 102]”, the “Peptide exchange” value is recorded as “++++ (≥75% = ++++)”.

Consider “103 (SLLEYQMLV; listed as Homo sapiens) [compound 103]”, for which the “Peptide exchange” value was “++++ (≥75% = ++++)”.

On to “104 (TLIQFTVKL; listed as Homo sapiens) [compound 104]”, for which the “Peptide exchange” value was “+++ (≥50 = +++)”.

For the substance “105 (SMYDKVLML; listed as Homo sapiens) [compound 105]”, the “Peptide exchange” value is “++++ (≥75% = ++++)”.

Take “106 (KMPDDVWLV; listed as Homo sapiens) [compound 106]”: the “Peptide exchange” value is recorded as “++++ (≥75% = ++++)”.

For “107 (AMYGTKLETI; listed as Homo sapiens) [compound 107]”, the “Peptide exchange” value was “++++ (≥75% = ++++)”.

Turning to “108 (ILLDDQFQPKL; listed as Homo sapiens) [compound 108]”, the “Peptide exchange” value was “++++ (≥75% = ++++)”.

On to “109 (SLFERLVVL; listed as Homo sapiens) [compound 109]”, for which the “Peptide exchange” value is “++++ (≥75% = ++++)”.

Turning to “111 (FLPEAPAEL; listed as Homo sapiens) [compound 111]”, the “Peptide exchange” value was “+++ (≥50 = +++)”.

As for “112 (LLLPGVIKTV; listed as Homo sapiens) [compound 112]”, the “Peptide exchange” value is reported as “+++ (≥50 = +++)”.

In the case of “114 (ALLEPGGVLTI; listed as Homo sapiens) [compound 114]”, the “Peptide exchange” value is recorded as “+++ (≥50 = +++)”.

On to “115 (ALLPSDCLQEA; listed as Homo sapiens) [compound 115]”, for which the “Peptide exchange” value is “+++ (≥50 = +++)”.

As for “116 (ALLVRLQEV; listed as Homo sapiens) [compound 116]”, the “Peptide exchange” value was “++++ (≥75% = ++++)”.

As for “117 (FLLDSAPLNV; listed as Homo sapiens) [compound 117]”, the “Peptide exchange” value is “++++ (≥75% = ++++)”.

For the substance “118 (KLPSFLANV; listed as Homo sapiens) [compound 118]”, the “Peptide exchange” value is reported as “+++ (≥50 = +++)”.
